The target of assay [1] is CIRK-treated Munc18c. Nature of the assay: GST pull-down, anti-Munc18c immunoblot quantification. The settings on record: 1 μg GST fusion on glutathione-Sepharose, 1 μg Munc18c pre-treated with 370 ng CIRK for 150 min, binding buffer, overnight, 4°C, n=3, read off a plot, scale: % of control Munc18c bound to wild-type Sx4. For orientation: In western blotting, separated proteins are transferred to a membrane and probed.

The target of assay [2] is Syntaxin 4 (Sx4) cytosolic domain, 1-273 (UniProt P70452). Nature of the assay: GST pull-down, anti-Munc18c and anti-pTyr blots. The settings on record: reference: Munc18c incubated without CIRK; sites Y521.
The target in assay [3] is VAMP2 (UniProt P63044). Put plainly: GST pull-down, anti-Munc18c and anti-pTyr blots. The settings on record: reference: Munc18c incubated without CIRK; sites Y521.

Sequence of Sx4 lacking the N-terminal 36 amino acids (N36Δ), GST fusion (P70452 whole entry, looked up, stated change not applied, the tested form may be a part): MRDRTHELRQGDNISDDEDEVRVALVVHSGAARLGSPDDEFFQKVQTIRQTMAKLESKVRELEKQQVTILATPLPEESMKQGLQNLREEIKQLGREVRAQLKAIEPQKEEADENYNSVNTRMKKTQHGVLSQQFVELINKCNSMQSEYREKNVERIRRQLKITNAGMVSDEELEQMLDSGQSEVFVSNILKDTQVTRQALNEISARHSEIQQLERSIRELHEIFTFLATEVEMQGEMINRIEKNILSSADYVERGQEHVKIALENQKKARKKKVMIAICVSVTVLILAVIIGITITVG
Sequence of Sx4-GST, wild-type Syntaxin 4 cytosolic domain (residues 1-273) (P70452 whole entry L173A/E174A, looked up, the tested form may be a part): as the sequence (P70452 whole entry, looked up, stated change not applied, the tested form may be a part) above, with L173A, E174A counted along it

Turning to “Sx4-GST, wild-type Syntaxin 4 cytosolic domain (residues 1-273) (from UniProt P70452) L173A; E174A”, the other: % Munc18c bound relative to wild-type Sx4 in assay [1] (parent: est. 71) worked out at 64.
For the substance “Munc18c (from UniProt Q60770) Munc18c pre-treated with CIRK”, the other: percent decrease in assay [2] is 30%.
For the substance “Munc18c (from UniProt Q60770) CIRK-treated Munc18c (pTyr form absent from pull-down)”, the “binding against the reference” value in assay [3] is reported as “weaker”.
For “Sx4 lacking the N-terminal 36 amino acids (N36Δ), GST fusion (from UniProt P70452) L173A; E174A”, the other: % Munc18c bound relative to wild-type Sx4 in assay [1] (parent: est. 9) was 10.

Values taken from publication PMC3103433 (2011).
